Patent publication US20110165265A1, “TRAIL VARIANTS FOR TREATING CANCER” (FUNDACIÓ GENÒMICA (CRG), priority 2007, published 2011)
“And” between values parts separate entries of the source, which are not always exact repeats. Equal entries are not always repeated. “Also recorded” adds a separate entry of the source.

B1: wtTRAIL: wild-type soluble recombinant human TRAIL, amino acids 114-281 (SEQ ID NO: 3) (protein, listed as Homo sapiens)
chain: MVRRGRVAAHTGTRGRSNTSSNSKNKAGRKNSWSSRSGHSSNHRNGVHKGYYYSTYRKNTKNDKMVYYKYTSYDMKSARNSCWSKDAYGYSYGGKNDRVSVTNHDMDHASGAVG
modifications: TRAIL 114-281
B2: D269HE195R: rhTRAIL (114-281) carrying mutations D269H and E195R; DR5-selective TRAIL variant (protein)
chain: MVRERGPQRVAAHITGTRGRSNTLSSPNSKNEKALGRKINSWESSRSGHSFLSNLHLRNGELVIHEKGFYYIYSQTYFRFQERIKENTKNDKQMVQYIYKYTSYPDPILLMKSARNSCWSKDAEYGLYSIYQGGIFELKENDRIFVSVTNEHLIDMHHEASFFGAFLVG

Tests used:
[1] = system: A2780 cells; assay: Caspase-3 activity and acridine orange apoptosis assays in A2780; format: cell-based, human; conditions: for effect of DcR2 blocking antibody on apoptosis induction: A2780; for effect of DR5 siRNA on induced apoptosis: A2780, also with cisplatin
[2] = system: LoVo cells; assay: Cell survival / sensitivity of LoVo; format: cell-based
Source text: C) Effect of increasing concentration of 5-Flurouracil on Lovo cells.

[3] = system: Colo205 cells; assay: Kinetics of receptor activation and apoptosis induction, ligand wash-out in Colo205; format: cell-based, human; conditions: Colo205, 30 ng/ml; for incubation time to reach 50% of total efficacy: ligand washed out, Annexin V at 240 min
Protocol: Cell death induction was expressed relative to the percentage of death induced after 240 min without washing out the ligands.
The cells were harvested and cell death was quantified with Annexin V labelling (FIG. 16B), as described above. The data was fitted with an interpolating spline using the software MatlabR.
The cells were then incubated to a total of 180 min in normal growth medium and then the level of cell death was determined (FIG. 16C).

[4] = system: A2780 cells; assay: Annexin V apoptosis assay in A2780; format: cell-based, human
[5] = system: Colo205 cells; assay: Cell survival / sensitivity of Colo205; format: cell-based
Protocol: (B) Effect of increasing concentrations of Aspirin on cell viability. (C) Effect of increasing concentrations of 5-Flurouracil on cell viability. (D) Combination therapy with 5 mM Aspirin pre-incubated for 24 h lead to further decreases in cell viability in cells treated with both TRAIL and two of the DR5 mutants. (E) 30 minute incubation of DR5 mutants, were sufficient decrease cell viability which was further augmented when cells were pre-incubated for 24 h with Aspirin. The shorter incubation period lead to a decrease potency of TRAIL alone or in combination with Aspirin. […] (G) 30 min incubation of the DR5 mutant was sufficient to decrease cell viability which was not enhanced by 5-Flurouracil, and once again the decease potency of TRAIL is seen. Proteins are indicated as follows: TRAIL stands for rhTRAIL WT; D269H stands for rhTRAIL carrying mutation D269H; E195R stands for rhTRAIL carrying mutations D269H and E195R; and M1 stands for rhTRAIL carrying mutations D269H, E194I and I196S.
TRAIL-induced cell death as a function of concentration was measured with the MTS assay.

[6] = target: T1, DcR2 (Homo sapiens, UniProt Q9UBN6); conditions: cited from earlier work
T1 construct: soluble, recombinant DcR1-Ig (sDcR1) and DcR2-Ig (sDcR2); purchased R&D Systems
T1 sequence (Q9UBN6 56-211 limits assumed): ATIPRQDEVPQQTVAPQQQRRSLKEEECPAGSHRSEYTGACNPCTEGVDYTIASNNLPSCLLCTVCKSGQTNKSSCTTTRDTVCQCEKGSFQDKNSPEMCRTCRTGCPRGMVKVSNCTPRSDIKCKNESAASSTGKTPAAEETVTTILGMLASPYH

[7] = target: T2, DcR1 (Homo sapiens, UniProt O14798); conditions: cited from earlier work
T2 construct: soluble, recombinant DcR1-Ig (sDcR1) and DcR2-Ig (sDcR2); purchased R&D Systems
T2 sequence (O14798 26-236 limits assumed): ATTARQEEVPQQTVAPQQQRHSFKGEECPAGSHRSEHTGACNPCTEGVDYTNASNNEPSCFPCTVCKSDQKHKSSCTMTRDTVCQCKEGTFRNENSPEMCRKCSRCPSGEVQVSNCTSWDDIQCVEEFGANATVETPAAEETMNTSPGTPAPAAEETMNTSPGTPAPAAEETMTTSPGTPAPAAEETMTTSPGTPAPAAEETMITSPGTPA

[8] = system: ML-1 cells; assay: Cytotoxicity in ML-1 cells; format: cell-based
Protocol: Colo205 and ML-1 cells were then treated with increasing concentrations of TRAIL or the DR5-specific variants D269H, D269HE195R, and D269H/T214R, and their cytotoxic potential was measured with a 3-(4,5-dimethylthiazol-2-yl)-2,5-diphenyl tetrazolium bromide (MTT) assay.

[9] = system: HeLa xenografts; assay: HeLa xenografts in athymic nude mice; format: in vivo; conditions: start at +/−150 mm3
Source text: Xenografts of the HeLa cervical cancer cell line were established with matrigel in athymic nude mice. Treatment was started when tumor volume was +/−150 mm3.

[10] = system: Colo205 tumors; assay: Colo205 tumors in athymic nude mice; format: in vivo; conditions: for anti-tumor effect, single therapy: 1 and 5 mg/kg IP
Protocol: The anti-tumor effect of rhTRAIL WT and D269HE195R was tested in a small number of athymic nude mice carrying a tumor of Colo205 cells (n=3 to 5 per group). The rhTRAIL proteins were tested in doses of 1 and 5 mg/kg, given by intraperitoneal injections for 2×5 days (day 1-5 and 8-12) with a daily doses of aspirin (in the same syringe as protein).
In a third study the combination between TRAIL and aspirin was tested. […] Both were tested in doses of 1 and 5 mg/kg, given by intraperitoneal injections for 2×5 days (day 1-5 and 8-12) with daily doses of aspirin (in the same syringe as protein). Data is only presented until day 13, because of too many fluctuations and mice dying after this day.

[11] = system: A2780-Luc xenografts; assay: IP A2780-Luc xenografts, bioluminescence imaging; conditions: for mean signal reduction as to vehicle treated mice: day 16, IP treatment; for light emission (bioluminescent signal): day 16, mean±SEM; for median survival: surrogate endpoint signal ≧3.1×10^8
Protocol: Visualization of response to TRAIL, TRAIL-DR5, cisplatin and to the combination of either ligand with cisplatin by means of bioluminescence imaging. Nude mice were inoculated IP with 2×10^6 A2780-Luc cells. After 5 days treatment was initiated; cisplatin (4 mg/kg IP) or vehicle at day 5 and 12, TRAIL, TRAIL-DR5 (5 mg/kg IP) or vehicle at day 5-10 and 12-16, or a combination of TRAIL or TRAIL-DR5 with cisplatin.
Female nude mice (Hsd:Athymic Nude-nu) were obtained from Harlan Nederland (Horst, The Netherlands) at 6-8 weeks of age (˜21 g). Inoculation was performed after 10 days of acclimatization.
Imaging was conducted with the IVIS 100 series (Xenogen Corporation Alameda, Calif.), composed of a cooled charge-coupled device camera connected to a light tight black chamber. Before in vivo imaging animals were anesthetized with 4% isoflurane and injected IP with D-luciferin (150 mg/kg, Xenogen) reconstituted in sterile PBS. Mice were placed in prone position on a warmed stage (37° C.) in the imaging chamber, and grayscale reference images were obtained under dim illumination. Pseudocolor images representing bioluminescent intensity were acquired with Livinglmage software (version 2.50, Xenogen) 10 and 15 min after D-luciferin injection in complete darkness. These images were superimposed on the grayscale images for analysis with Igor Pro software (version 4.09, WaveMetrics, Lake Oswego, Oreg.). All bioluminescence imaging (BLI) data are depicted in radiance units (photons/sec/cm^2/sr) enabling absolute comparisons between bioluminescent images and represent final data obtained after subtraction of the background signal.

[12] = system: Colo205 cells; assay: Colo205 apoptosis after neutralizing antibodies to DcR1 and DcR2; format: cell-based, human; conditions: for dose that induced approximately 50% cell death: Annexin V
Protocol: All graphs are representatives of two independent repeats. […] Induction of apoptosis was measured 3 h post-treatment using Annexin V assay. […] The graphs show the average±SEM of three independent experiments.
Apoptotic cell death was measured 3 h post-treatment using staining Annexin V assay (FIG. 15), as described above. Increase in apoptosis was expressed as fold increase compared to the level of apoptosis caused by the ligands alone, in the absence of the neutralizing antibodies.

[13] = system: HCT15, HT29 and RKO cells; assay: Cell survival of HCT15, HT29 and RKO; format: cell-based
[14] = system: EM-2 cells; assay: Cytotoxicity in EM-2 cells; format: cell-based
Source text: Similar results were obtained by using EM-2 chronic myeloid leukemia cells expressing only the DR4 receptor and lacking the DR5 receptor and by using the ovarian cancer cell line A2780, which expresses DR5 but lacks DR4 on its surface and is relatively insensitive toward TRAIL-induced cell death.

[15] = lowest dose 1 mg/kg + 200 mg/kg aspirin

| Molecule | effect of DcR2 blocking antibody on apoptosis induction [1] | effect of DR5 siRNA on induced apoptosis [1] | cell viability, single agent [2] | effect of 5-FU and Aspirin on induced apoptosis [2] | incubation time to reach 50% of total efficacy [3] | effect of 5-FU and Aspirin on induced apoptosis ([5]; Colo205) | cell death induction [8] | effect on xenografts [9] | effect of combination with aspirin ([10]; 5 mg/kg + 200 mg/kg aspirin) | effect of combination with aspirin [10, 15] | mean signal reduction as to vehicle treated mice [11] [%] | light emission (bioluminescent signal) [11] | median survival [11] [days] | apoptosis rate enhancement with neutralizing antibodies to both DcR1 and DcR2 ([12]; Colo205) | fold increase in apoptosis with DcR1 neutralising antibody ([12]; Colo205, 3 h) | dose that induced approximately 50% cell death ([12]; Colo205, 3 h) [ng/mL] | cell viability with or without 5-Flurouracil [13] | other results |
| --- | --- | --- | --- | --- | --- | --- | --- | --- | --- | --- | --- | --- | --- | --- | --- | --- | --- | --- |
| B1 | did not enhance apoptosis induction | completely protected | equal decrease in cell viability | enhanced apoptosis | 60.81 min and 60.8 ± 4.3 min | enhanced apoptosis | able to induce cell death | No effect was observed | additive effect | additive effect | 48.8 | 2.3×10^8±3.1×10^7 radiance units | 21 | 1.5±0.1 fold | 1.5 fold | ~20 | equal decrease in cell viability | incubation time for significant pro-caspase-8 processing ([3]; Western blot): 60 min; cell death ([4]; A2780, highest concentration tested 250 ng/ml): ≤ 24.3±4.5%; Kd ([6]; surface plasmon resonance, read-out: binding affinity Kd for DcR2): ~8 nM; Kd ([7]; surface plasmon resonance, read-out: binding affinity Kd for DcR1): ~25 nM; reduction of apoptosis-inducing potential in the presence of the decoy receptors ([12]; Colo205): approximately 40%; cell death ([14]; EM-2, 50 ng/ml): > 80% |
| B2 | did not enhance apoptosis induction | completely protected | equal decrease in cell viability | enhanced apoptosis | 3.55 min and 3.6 ± 0.4 min | enhanced apoptosis | only TRAIL was able to induce cell death; also recorded: hardly any apoptosis | No effect was observed | not visible | additive effect | 68.3 | 1.4×10^8±1.3×10^7 radiance units | 21 | not affected | no increase in apoptosis | ~4 | equal decrease in cell viability | sensitivity, single agent comparison [2]: higher sensitivity; effect of 5 or 10 min pre-incubation with wtTRAIL on induced apoptosis [3]: failed to reduce; apoptosis ([4]; A2780, 10 ng/ml, Annexin V): 30.6±2.5%; cell viability, single agent ([5]; Colo205): significantly less cell viability than TRAIL; sensitivity, single agent comparison ([5]; Colo205): higher sensitivity; efficient concentration compared to wtTRAIL ([5]; Colo205, MTS dose-response): efficient at a several fold lower concentration than needed for wtTRAIL; affinity for DcR2 ([6]; earlier work referred to): reduced; binding capacity to DcR1 ([7]; earlier work referred to): virtually absent; anti-tumor effect, single therapy ([10]; listed as TRAIL-DR5): nice response; anti-tumor effect, single therapy ([10]; listed as mutant TRAIL): reduces the tumor growth; also recorded: some positive effect on the tumor growth; fold increase in apoptosis with DcR2 neutralising antibody ([12]; Colo205, 3 h): no increase of apoptosis; also recorded: no increase in apoptosis; fold increase in apoptosis with neutralizing antibodies to both DcR1 and DcR2 ([12]; Colo205, 3 h): not and not affected; cell death induction ([14]; EM-2 cells): hardly any apoptosis |
